Results as given in patent US20200048348A1.
Residue numbers refer to the chain shown, from its start. Each block holds one binder with its values, some of them ahead of it.

What was measured:
human CD3 (human) [1] = molecular target: human CD3 (human) (UniProt P07766)
human CD3 (human) [2] = molecular target: human CD3 (human) (UniProt P07766); assay: flow cytometry, bispecific antibody on Jurkat cells; antibody concentration not given
human CD3 (human) [3] = molecular target: human CD3 (human) (UniProt P07766); assay: Octet, protein binding affinity of the anti-CD3 arm of the bispecific; form of the CD3 protein not stated

human CD3 (human), sequence (P07766 23-207, chain 1 of 2): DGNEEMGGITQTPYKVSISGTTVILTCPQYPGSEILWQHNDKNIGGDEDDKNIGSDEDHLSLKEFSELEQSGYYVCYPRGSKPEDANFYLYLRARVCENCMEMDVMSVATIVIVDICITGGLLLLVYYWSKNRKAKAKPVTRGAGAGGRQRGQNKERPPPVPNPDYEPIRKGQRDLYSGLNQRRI
human CD3 (human), sequence (P04234 22-171, chain 2 of 2, further chain): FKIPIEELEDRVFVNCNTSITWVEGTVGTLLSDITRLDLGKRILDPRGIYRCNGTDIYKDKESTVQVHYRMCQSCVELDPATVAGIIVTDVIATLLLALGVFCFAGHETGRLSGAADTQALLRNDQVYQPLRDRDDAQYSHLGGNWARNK

- IFNg released by pan T-cells, bispecific on plate-coated BCMA protein, at 12 ng/mL bispecific (human CD3 (human) [1]): 333 pg
- IL-2 released by pan T-cells, bispecific on plate-coated BCMA protein, at 37 ng/mL bispecific (human CD3 (human) [1]): 44 pg
- IL-6 released by pan T-cells, bispecific on plate-coated BCMA protein, at 111 ng/mL bispecific (human CD3 (human) [1]): 0.5 pg
- IL-10 released by pan T-cells, bispecific on plate-coated BCMA protein, at 111 ng/mL bispecific (human CD3 (human) [1]): 2.4 pg
- TNFa released by pan T-cells, bispecific on plate-coated BCMA protein, at 12 ng/mL bispecific (human CD3 (human) [1]): 485 pg
- Jurkat cell bind (MFI) (human CD3 (human) [2]): 67 MFI
- Kd (human CD3 (human) [3]): 714 nM
B1: CD3_F2F-BCMA (bispecific antibody, part only; not given: anti-BCMA arm and common light chain, part only)
anti-CD3 heavy chain: EVQLVESGGGLVQPGRSLRLSCAASGFTFHNYAMHWVRQAPGKGLEWVSGISWNSGSIGYADSVKGRFTISRDNAKNSLYLQMNSLRAEDTALYYCAKDSRGYGDYSLGGAYWGQGTLVTVSS
- %kill of U266 tumor cells with human pan T-cells at 333 ng/mL bispecific (human CD3 (human) [1]): 51%
- kill EC50: U266 tumor cell lysis with human pan T-cells (human CD3 (human) [1]): 9.8 ng/mL

- IFNg released by pan T-cells, bispecific on plate-coated BCMA protein, at 12 ng/mL bispecific (human CD3 (human) [1]): 154 pg
- IL-2 released by pan T-cells, bispecific on plate-coated BCMA protein, at 37 ng/mL bispecific (human CD3 (human) [1]): 8 pg
- IL-6 released by pan T-cells, bispecific on plate-coated BCMA protein, at 111 ng/mL bispecific (human CD3 (human) [1]): 0.5 pg
- IL-10 released by pan T-cells, bispecific on plate-coated BCMA protein, at 111 ng/mL bispecific (human CD3 (human) [1]): 0.6 pg
- TNFa released by pan T-cells, bispecific on plate-coated BCMA protein, at 12 ng/mL bispecific (human CD3 (human) [1]): 553 pg
- Jurkat cell bind (MFI) (human CD3 (human) [2]): 31 MFI
- Kd (human CD3 (human) [3]): 1000 nM
B2: CD3_F2B-BCMA (bispecific antibody, part only; not given: anti-BCMA arm and common light chain, part only)
anti-CD3 heavy chain: B1 anti-CD3 heavy chain with H30D, N31D, S107R
- %kill of U266 tumor cells with human pan T-cells at 333 ng/mL bispecific (human CD3 (human) [1]): 38%
- kill EC50: U266 tumor cell lysis with human pan T-cells (human CD3 (human) [1]): 150 ng/mL
